T1: influenza B/Lee/1940 (B/Lee40) HA (influenza B virus B/Lee/1940, biotin on the BirA biotinylation site (BirA kit))
T1 construct: source: Sf9 (baculovirus), purified from the supernatant (Ni Sepharose excel, SEC)
T1 chain: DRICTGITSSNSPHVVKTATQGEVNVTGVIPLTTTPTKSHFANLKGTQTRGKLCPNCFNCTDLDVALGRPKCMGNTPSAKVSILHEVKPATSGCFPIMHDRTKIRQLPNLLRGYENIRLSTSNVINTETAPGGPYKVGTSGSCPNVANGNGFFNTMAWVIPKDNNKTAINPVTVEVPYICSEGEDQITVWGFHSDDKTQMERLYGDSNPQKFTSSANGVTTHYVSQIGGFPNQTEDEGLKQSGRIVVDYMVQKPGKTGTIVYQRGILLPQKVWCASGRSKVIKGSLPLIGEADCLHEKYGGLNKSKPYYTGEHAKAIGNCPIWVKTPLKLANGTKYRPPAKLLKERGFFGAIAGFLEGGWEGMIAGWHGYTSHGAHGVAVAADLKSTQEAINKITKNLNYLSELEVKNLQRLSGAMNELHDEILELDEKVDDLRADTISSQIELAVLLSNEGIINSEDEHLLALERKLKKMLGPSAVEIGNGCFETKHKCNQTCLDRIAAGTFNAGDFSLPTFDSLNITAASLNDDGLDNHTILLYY

B1: somatic CR9114 Fab VH S52G (Fab, V domains shown)
VH: QVQLVQSGAEVKKPGSSVKVSCKSSGGTSNNYAISWVRQAPGQGLDWMGGIGPIFGSTAYAQKFQGRVTISADIFSNTAYMELNSLTSEDTAVYFCARHGNYYYYSGMDVWGQGTTVTVSS
VL: SYVLTQPPAVSGTPGQRVTISCSGSDSNIGRRSVNWYQQFPGTAPKLLIYSNDQRPSVVPDRFSGSKSGTSASLAISGLQSEDEAEYYCAAWDDSLKGAVFGGGTQLTVL
B2: somatic CR9114 Fab VH S24F (Fab, V domains shown)
VH: QVQLVQSGAEVKKPGSSVKVSCKFSGGTSNNYAISWVRQAPGQGLDWMGGISPIFGSTAYAQKFQGRVTISADIFSNTAYMELNSLTSEDTAVYFCARHGNYYYYSGMDVWGQGTTVTVSS
VL: SYVLTQPPAVSGTPGQRVTISCSGSDSNIGRRSVNWYQQFPGTAPKLLIYSNDQRPSVVPDRFSGSKSGTSASLAISGLQSEDEAEYYCAAWDDSLKGAVFGGGTQLTVL
B3: somatic CR9114 Fab VH S52V (Fab, V domains shown)
VH: QVQLVQSGAEVKKPGSSVKVSCKSSGGTSNNYAISWVRQAPGQGLDWMGGIVPIFGSTAYAQKFQGRVTISADIFSNTAYMELNSLTSEDTAVYFCARHGNYYYYSGMDVWGQGTTVTVSS
VL: SYVLTQPPAVSGTPGQRVTISCSGSDSNIGRRSVNWYQQFPGTAPKLLIYSNDQRPSVVPDRFSGSKSGTSASLAISGLQSEDEAEYYCAAWDDSLKGAVFGGGTQLTVL
B4: somatic CR9114 Fab VH I73W (Fab, V domains shown)
VH: QVQLVQSGAEVKKPGSSVKVSCKSSGGTSNNYAISWVRQAPGQGLDWMGGISPIFGSTAYAQKFQGRVTISADWFSNTAYMELNSLTSEDTAVYFCARHGNYYYYSGMDVWGQGTTVTVSS
VL: SYVLTQPPAVSGTPGQRVTISCSGSDSNIGRRSVNWYQQFPGTAPKLLIYSNDQRPSVVPDRFSGSKSGTSASLAISGLQSEDEAEYYCAAWDDSLKGAVFGGGTQLTVL
B5: somatic CR9114 Fab VH S24L (Fab, V domains shown)
VH: QVQLVQSGAEVKKPGSSVKVSCKLSGGTSNNYAISWVRQAPGQGLDWMGGISPIFGSTAYAQKFQGRVTISADIFSNTAYMELNSLTSEDTAVYFCARHGNYYYYSGMDVWGQGTTVTVSS
VL: SYVLTQPPAVSGTPGQRVTISCSGSDSNIGRRSVNWYQQFPGTAPKLLIYSNDQRPSVVPDRFSGSKSGTSASLAISGLQSEDEAEYYCAAWDDSLKGAVFGGGTQLTVL
B6: germline CR9114 Fab (inferred germline of CR9114) (Fab, V domains shown)
VH: QVQLVQSGAEVKKPGSSVKVSCKASGGTFSSYAISWVRQAPGQGLEWMGGIIPIFGTANYAQKFQGRVTITADKSTSTAYMELSSLRSEDTAVYYCARHGNYYYYYGMDVWGQGTTVTVS
VL: SYVLTQPPAVSGTPGQRVTISCSGSDSNIGRRSVNWYQQFPGTAPKLLIYSNDQRPSVVPDRFSGSKSGTSASLAISGLQSEDEAEYYCAAWDDSLKGAVFGGGTQLTVL

One assay addresses T1, influenza B/Lee/1940 (B/Lee40) HA. The experiment in a line: BLI. Particulars: both partners purified.
As for B1, the binding result was “no binding”. In the case of B2, the binding result is reported as “no binding”. In the case of B3, the binding result is “no binding”.

Turning to B4, the binding result is “no binding”. For B5, the binding result is on record as “no binding”.

Another assay concerns the target H1 stem (recombinant HA stem construct #4900 designed based on H1N1 A/Brisbane/59/2007 HA) (influenza A virus H1N1 …, biotin on the BirA biotinylation site (BirA kit)). The experiment in a line: BLI. Particulars: both partners purified.
Turning to B6, the dissociation constant Kd stood at 185 nM.
